Results taken from paper PMC10720262 (Cell Reports, 2023).
Changes are numbered by the printed parent chain.

B1: CL-437762 (antibody, V domains shown)
VH: QVQLVESGGGVVQPGRSLRLSCAASGFTFSNYGMYWVRQAPGKGLEWVAVIWYDGSNKYYADSVKGRFTISRDNSKNTLYLQMNSLRAEDTAFYYCARPQYSGSGSYFDYWGQGTLVTVSS
VL: not shown
B2: CL-444639 (antibody, V domains shown)
VH: QVQLVESGGGVVQPARSLRLSCAASGFTFSSYGMHWVRQAPGKGLEWVAVIWYDGSNKYYADSVKGRFTISRDNSKNTLYLQMNSLRAEDTAVYYCAKVGDFYGSGSYPHYYGMDVWGQGTTVTVSS
VL: not shown
B3: CL-437899 (antibody, V domains shown)
VH: QEQLVESGGGVVQPGRSLRLSCEVSGFTFSNHGLHWVRQAPGKGLEWVAIIWYDGSNKFYAESVKGRFTISRDNSKNRMYLEMNSLRVEDSAVYYCVRAYSRSSSDYKYGMDVWGQGTTVTVSS
VL: DIQMTQSPSTLSASVGDRVIITCRASQSISSWLAWYQQRPGKAPELLIYKASSLETGVPSRFSGSGSGTEFTLTISSLQPDDFATYFCQQYSSYWTFGQGTKVEIK
B4: CL-444653 (antibody, V domains shown)
VH: QVQLVESGGGVVQPGRSLRLSCTASGFTFSTYGMHWVRQAPGKGLEWVAIIWYDGGNKFYADSVKGRFTISRDNSKDTLYLQMNSLRAEDTAVYYCAKAWYKVDDKYSMDVWGQGTTVTVSS
VL: B3 VL with I20T, R39K, E45K, T56S, S77G, F87Y, S92I, S93N
B5: CL-444882 (antibody, V domains shown)
VH: QVHLVESGGGVVQPGRSLRLSCATSGFSFSSYGMHWVRQAPGKGLEWVAIIWYDGSNKFYADSVKGRFTISRDNSENTLYLQMNSLRAEDTAVYYCAKVGLSYSGRTGAFDIWGQGTMVTVSS
VL: B3 VL with I20T, S31I, R39K, E45K, S52A, T56S, F62I, F87Y, S92N
B6: CL-444469 (antibody, V domains shown)
VH: QVQLVESGGGVVQPGRSLRVSCEVSGLTFSNYGMHWVRQAPGKRLEWVAIIWYDGSNKYYADSVKGRFTISRDNSKNTLYLQMNSLRAEDTAVYYCARSYGSGSRGDYYGMDVWGQGTTVTVSS
VL: B3 VL with I20T, Y36F, R39K, E45K, T56S, F87Y, S92Y
B7: CL-444588 (antibody, V domains shown)
VH: QVQLVESGGGVVQPGRSLRLSCAASGFTFSGYGMHWVRQTPGKGLGWVALIWYDGSNKFYADSVRGRFTISRDNSKNTLYLQMNSLRAEDTAIYYCARSYPSGSRGDKYGMDVWGQGTTVTVSL
VL: B3 VL with I20T, S31T, Y36F, R39K, E45K, T56S, S63T, F87Y, S92N
B8: CL-438096 (antibody, V domains shown)
VH: QVVLVESGGGVVQPGRSLRLSCEASGFIFSSRGMHWVRQTPGKGLEWVAIIWYDGSNKFYADSVKGRFTISRDNSKNTLYLQMNSLRAEDTAVYYCARSYRTSLDKKYGMDVWGQGTTVTVSS
VL: B3 VL with I20T, R39K, E45K, T56S, Q79H, S92N
B9: CL-444387 (antibody, V domains shown)
VH: B5 VH with A23V, T24A, N57Y, K58T, F59Y, E76K, A88V, S104N
VL: not shown
B10: CL-444739 (antibody, V domains shown)
VH: B5 VH with A23V, T24A, K58R, F59Y, K65Q, E76K, S104N, I112V
VL: not shown
B11: CL-441734 (antibody, V domains shown)
VH: QVQLVESGGGVVQPGRSLRLSCAASGFTFSSHGMHWVRQAPVKGLEWVAVIWYDGSNKYYADSVKGRFTISRDNSKNTLYLQMNSLRAEDTAVYYCARVEYSRSSGDYYYYGLDVWGQGTTVTVSS
VL: EIVMTQSPATLSVSPGERATLSCRASQSVSSNLAWYQQKPGQAPRLLIYGASTRATGIPARFSGSGSGTEFTLTISSLQSEDFAVYYCQQYDNWWTFGQGTKVEIK
B12: CL-444691 (antibody, V domains shown)
VH: QVQLVESGGGVVQPGRSLRLSCAASGFTFSNYGMHWVRQAPGKGLEWVAVIWYDGSNKFYADSVKGRFTISRDNSKNTLYLQMNSLRAEDTAVYYCARDGGYNKNSGSYGWFDPWGQGTLVTVSS
VL: DIQMTQSPSTLSASVGDRVTITCRASQSVSTWLAWYQQKPGKAPKLLIYKASSLESGVPSRFSGSGSGTEFTLTISSLQPDDFATYYCQQYNSYFTFGQGTRLEIK
B13: CL-442127 (antibody, V domains shown)
VH: QAQLVESGGGVVQPGKSLRLSCAASRFTFRNYGMHWVRQGPVKGLEWVALIWHDGSNKFYSDSVRDRFTISRDNSKNKLFLQMNSLTADDTALYYCVRSNYDGSGTYGWFGPWGQGTLVTVSS
VL: EIVLTQSPGTLSLSPGERATLSCRASQSVISNYLAWYQQKPGQAPRLLIYGASTRDIGIPDRFSGSGSGTDFTLTISRLEPEDFAVYFCHQYGSSFTFGPGTKVDFK
B14: CL-437862 (antibody, V domains shown)
VH: QVQLVESGGGVVQPGRSLRLSCAASGFTFSNSGMHWVRQVPGKGLEWVAIIWYDGGNKYYADSVKGRFTISRDNSKNTLYLQMNSLRAEDTAVYYCARAYYDILTSYDKDCCYGMDVWGQGTTVTVSS
VL: not shown
B15: CL-437934 (antibody, V domains shown)
VH: B14 VH with E6A, G10A, V40A, K43Q, A97V, D102E, S106T, D108N
VL: not shown
B16: CL-437092 (antibody, V domains shown)
VH: QVQLVESGGGVVQPGGSLRLSCAASGFTLSSFGIHWVRQAPGKGLEWVALIWHDGSMKYYADSVKGRFTISRDNSKNTVDIQMNSLRVEDTAVYYCARPGIGSPGDHYTMDVWGHGTTVTVSS
VL: not shown
B17: CL-444424 (antibody, V domains shown)
VH: QVQLVESGGGVVQPGRSLRLSCTASGFTFSNYGMHWIRQAPGKGLEWVAIIWFDGSSQYYADSVKGRFTISRDNSKNTLYLQMNSLRAEDTAVYYCVRALYDSGSLFDFWGLGTLVTVSS
VL: DIQMTQSPSTLSASVGDRVTITCRASQNISSLLAWYQQKPGKAPKLLIYKASSLESGVPSRFSGNGSGTEFTLTVSSLQPDDFATYSCLQYNNYWTFGQGTKVEIK
B18: CL-437907 (antibody, V domains shown)
VH: QVQLVESGGGVVQPGRSLRLSCVASGFTFSHSGMHWVRQTPGKGLEWVAIIWHDGSIKYYVESVKGRFTISRDNSKNTLYLEMRSLRAEDTAVYFCVRSYSESLYDKYGMDVWGQGTTVTVSS
VL: DIQMTQSPSTLSASVGDRVTISCRASQSISSWLAWFQQKPGKAPKLLIYAASSLQSGVPSRFSGSGSGTDFTLTISSLQPDDFATYYCQQFNSYWTFGQGTKVEVK
B19: CL-437492 (antibody, V domains shown)
VH: QEQLVESGGGVVQPGNSLRLSCVASGFTFSNHGMHWVRQAPGKGLEWVAIIWYDGSQKFYSDSVKGRFTISRDNSKNTLYLQMNSLRAEDTAIYYCARVDWSGNDWGWFDPWGQGTLVTVSS
VL: EIVLTQSPDTLSLSPGERATLSCRASQTLSSRHLAWYQQKPGQAPRLLIYGASSRATGIPDRFSGSGSGTDFTLTINRLEPEDFAVFYCQQYGRLWTFGQGTKVEIK
B20: CL-441816 (antibody, V domains shown)
VH: QEQLVESGGGVVQPGRSLRLSCATSGFTFSTYGLHWVRQSPGKGLEWVTVIWYDGSNKFYADSVKGRFTISRDNSKNTLYLQMNSLRAEDTAVYYCARALYSSRWYGAFDIWGQGTMVTVSS
VL: QSVLTQPPSVSGAPGQRVTISCTGSSSNIGAGYDVHWYQLLPGTAPKLLIYGNSNRPSGVPDRFSGSKSGTSASLAITGLQAEDEADYYCQSYIRSLSGSVFGGGTKLTVL
B21: CL-437716 (antibody, V domains shown)
VH: QVHLVESGGGVVQPGRSLRLSCAASGFIFSNSGMHWVRQVPGKGLEWVAIIWYDGSNKYYADSVKGRFTISRDNSKNTLYLQMNSLRAEDTAVYYCVRAYSSSSSYYYGMDVWGQGTTVTVSS
VL: not shown
B22: CL-440582 (antibody, V domains shown)
VH: QVQLVESGGGVVQPGRSLRLSCAASGFTLNNYGIHWVRQAPGKGLEWLSLIWYDGSNKFYADSVKGRFTVSRDNSQNTVSLHMSSLSVDDTAVYYCARPGIGVPGDKYTMDVWGQGTTVTVSS
VL: DIQMTQSPSTLSASVGDRVTITCRASQTISAWLAWYQQKLGKAPKILIYKASILESGVPSRFSGSGSGTEFTLTINSLQPDDFATYYCQQYNYDWTFGQGTKVEIN
B23: CL-438145 (antibody, V domains shown)
VH: QVQLVESGGGVVQPGRSLRLSCAASGFTFSDYGMHWVRQAPGKGLEWVAIIWYDGSNKYYAASVKDRFIISRDNFKNTLYLQMNSLRAEDTAVYYCARVNFDDSGSWDYWGQGTLATVSS
VL: DIQMTQSPSTLSASVGDRVTITCRASQNINTRLAWYQQKVGTAPKLLIYTASSLESGVPSRFSGSGSGTEFTLTISSLQPDDFATYYCQQYYRYWTFGQGTKVEIK
B24: CL-440324 (antibody, V domains shown)
VH: QVQLVESGGGVVQPGRSLRLSCAASGFTFRNHGLHWVRQAPGKGLEWVAIIWFDGSNKFYADSVKGRFTISRDNSKNTLYLQMNSLRAEDTAIYYCARVSSHDNGDYGDFDYWGQGTLVTVSS
VL: B12 VL with S28N, V29I, T31N, S77G, N92K, S93T, F95W, R102Q, L103V
B25: CL-440422 (antibody, V domains shown)
VH: QVQLVESGGGVVQPGRSLRLSCAASGFTFSNFGMHWVRQTPDRGLEWVAIIWFDGSNTFYTDSVKGRFTISRDNYMNTLYLQMNSLRAEDTAVYYCARSFYSDSAGSLFDYWGQGTLVTVSS
VL: DIQMTQSPSTLSASVGDRVTITCRASQNINNWVAWYQQKPGKAPKLLIYKASDLETGVPSRFSGSGSGTEFTLTISGLQPDDFATFYCLQNNHYWTFGQGTKVEIK
B26: CL-444592 (antibody, V domains shown)
VH: QVQLVESGGGVVQPGRSLRLSCAASGFTFSSYGMHWVRQAPGKGLEWVAVIWYDGSNKYYADSVKGRFTISRDNSKNTLYLQMNSLRAEDTAVYYCARDGNWNYNYYYGMDVWGQGTTVTVSS
VL: DIQLTQSPSFLSASVGDRVTITCWASQGISSYLAWYQQKPGKAPKLLIYAASTLQSGVPSRFSGSGSGTEFTLTISSLQPEDFATYYCQQLNSYPPTFGQGTRLEIK

Target: recombinant full-length PfCSP (Plasmodium falciparum circumsporozoite protein, strain NF54) (Plasmodium falciparum NF54, UniProt P19597)
Sequence (P19597 20-375): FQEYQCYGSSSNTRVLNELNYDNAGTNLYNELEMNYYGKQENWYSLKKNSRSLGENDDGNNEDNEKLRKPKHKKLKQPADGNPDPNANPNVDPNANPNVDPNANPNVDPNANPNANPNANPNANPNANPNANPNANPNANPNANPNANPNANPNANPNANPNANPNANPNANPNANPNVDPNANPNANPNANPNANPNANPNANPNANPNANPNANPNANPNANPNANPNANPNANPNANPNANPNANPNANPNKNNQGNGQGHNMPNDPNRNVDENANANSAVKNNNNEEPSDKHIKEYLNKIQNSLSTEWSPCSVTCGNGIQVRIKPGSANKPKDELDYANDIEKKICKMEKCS

Row | Binder | binding result
1 | B1 | binds
2 | B2 | binds
3 | B3 | binds
4 | B4 | binds
5 | B5 | binds
6 | B6 | binds
7 | B7 | binds
8 | B8 | binds
9 | B9 | binds
10 | B10 | binds
11 | B11 | binds
12 | B12 | binds
13 | B13 | binds
14 | B14 | binds
15 | B15 | binds
16 | B16 | binds
17 | B17 | binds
18 | B18 | binds
19 | B19 | binds
20 | B20 | binds
21 | B21 | binds
22 | B22 | binds
23 | B23 | binds
24 | B24 | binds
25 | B25 | binds
26 | B26 | binds
